Numbering of substitutions follows the chain as printed.
Key:
PDK1-L155E = target: T1, PDK1-L155E (Homo sapiens, UniProt O15530, L155E); assay: Phosphorylation of AGC kinase substrates by PDK1 (32P, PhosphoImager); assay type: biochemical; details: PKB[S473D] rate by PDK1-wt = 100
T1 construct: made in house; host or cells: human embryonic kidney 293 cells
T1 sequence (O15530 1-556 L155E): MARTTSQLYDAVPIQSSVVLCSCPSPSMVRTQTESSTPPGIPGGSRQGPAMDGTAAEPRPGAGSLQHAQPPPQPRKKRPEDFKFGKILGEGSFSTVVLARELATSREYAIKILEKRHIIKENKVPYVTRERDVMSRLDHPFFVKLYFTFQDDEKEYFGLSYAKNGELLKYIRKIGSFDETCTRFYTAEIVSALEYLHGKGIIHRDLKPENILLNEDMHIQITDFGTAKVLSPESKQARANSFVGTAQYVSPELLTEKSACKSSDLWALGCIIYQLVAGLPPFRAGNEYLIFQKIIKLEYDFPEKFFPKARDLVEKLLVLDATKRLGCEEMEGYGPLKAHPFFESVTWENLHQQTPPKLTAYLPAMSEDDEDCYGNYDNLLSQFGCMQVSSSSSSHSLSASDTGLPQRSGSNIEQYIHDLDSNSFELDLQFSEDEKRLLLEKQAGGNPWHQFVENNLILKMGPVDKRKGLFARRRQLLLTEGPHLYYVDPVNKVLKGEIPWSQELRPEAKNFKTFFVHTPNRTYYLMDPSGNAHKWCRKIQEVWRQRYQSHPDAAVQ
Description: (§1) Phosphorylation of AGC kinase substrates by PDK1. The phosphorylation of PDK1 substrates was performed in a final volume of 20 μl in a buffer containing 50 mM Tris-HCl pH 7.5, 0.1% (by vol) 2-mercaptoethanol, 10 mM magnesium chloride, 100 μM [γ-^32P]ATP (˜1000 c.p.m./pmol), 0.5 μM microcystin-LR, 0.6 μM AGC kinase substrate and 0.6 to 30 nM wild type PDK1 or the indicated mutant of PDK1.
(§2) Relative phosphorylation of PDK1 substrates. PDK1 substrates were phosphorylated in vitro, subjected to SDS-PAGE, and radioactivity associated with the bands measured using a Phospho-Imager and known amounts of ATP as standard. The phosphorylation rate of PKB[S473D] in the presence of PtdIns (3,4,5)P3 was 2.6 mol/mol PDK1/min and was taken as the relative value of 100. Average values from a representative experiment performed in duplicates are shown.

PDK1-wt = target: T2, PDK1-wt (Homo sapiens, UniProt O15530); assay: as above; assay type: biochemical
T2 construct: made in house; host or cells: human embryonic kidney 293 cells
T2 sequence (O15530 1-556): T1 sequence (O15530 1-556 L155E) with E155L
Description: as §1, §2

PDK1 = target: T3, PDK1 (Homo sapiens, UniProt O15530); assay: Glutathione-Sepharose pull-down of PDK1 with S6K1 or SGK1 from 293 cells; assay type: binding; details: GST-SGK1 forms; wild type Myc-PDK1
T3 construct: Full length PDK1 (residues 1-556); made in house; host or cells: 293 cells
T3 sequence (O15530 1-556): T1 sequence (O15530 1-556 L155E) with E155L
Description: FIG. 21. Interaction of S6K1 and SGK1 with PDK1. 293 cells were transiently transfected with DNA constructs expressing GST, GST-PDK1 wt or PDK1 L155E together with constructs expressing either wild type or the indicated mutants or truncations of HA tagged S6K1 (A) or wild type GST-ΔN-SGK1 or 422D mutant. 36 h post transfection the cells were lysed and GST fusion protein was purified by affinity chromatography on glutathione-Sepharose beads. Aliquots were electrophoresed on a 10% SDS-polyacrylamide gel, stained with Coomassie Blue, or immunoblotted using an anti-FLAG antibody to detect FLAG-S6K1 and anti-Myc antibody to detect Myc-PDK1. To establish that the wild type and mutant proteins were expressed at similar levels, […] of total lysate was electrophoresed on a 10% SDS-polyacrylamide gel and immunoblotted using the indicated antibodies. Duplicates of each condition are shown. Similar results were obtained in two different experiments.
Binding of PDK1 to SGK1 and S6K1. For the data presented in FIG. 22, 293 cells were cotransfected with 10 μg of the wild type or mutant PDK1 plasmid and 10 μg of either the wild type or mutant S6K1 or SGK1. […] The gels were either stained with Coomassie blue, or analysed by immunoblotting with either anti-Flag or anti-Myc antibodies (described below).

Relative phosphorylation of PDK1 substrates PDK1-L155E +PIFtide (PDK1-L155E; with PIFtide): 2.4 | Relative phosphorylation of PDK1 substrates PDK1-L155E — (PDK1-L155E; without PIFtide): 3.3 | phosphorylated at a lower rate than SGK1[T422D] (PDK1-wt): 10 fold | Relative phosphorylation of PDK1 substrates PDK1-wt +PIFtide (PDK1-wt; with PIFtide, PKB[S473D] rate with PtdIns(3,4,5)P3 = 100): 3.8 | Relative phosphorylation of PDK1 substrates PDK1-wt — (PDK1-wt; without PIFtide, PKB[S473D] rate with PtdIns(3,4,5)P3 = 100): 8 | interaction with Myc-PDK1 (PDK1): did not interact
B1: DN-SGK: SGK1 lacking the N-terminal 60 amino acids (protein)
chain: SQPQEPELMNANPSPPPSPSQQINLGPSSNPHAKPSDFHFLKVIGKGSFGKVLLARHKAEEVFYAVKVLQKKAILKKKEEKHIMSERNVLLKNVKHPFLVGLHFSFQTADKLYFVLDYINGGELFYHLQRERCFLEPRARFYAAEIASALGYLHSLNIVYRDLKPENILLDSQGHIVLTDFGLCKENIEHNSTTSTFCGTPEYLAPEVLHKQPYDRTVDWWCLGAVLYEMLYGLPPFYSRNTAEMYDNILNKPLQLKPNITNSARHLLEGLLQKDRTKRLGAKDDFMEIKSHVFFSLINWDDLINKKITPPFNPNVSGPNDLRHFDPEFTEEPVPNSIGKSPDSVLVTASVKEAAEAFLGFSYAPPTDSFL
modifications: left off: a dimerising Fc or GST
notes: SGK1 lacking the N-terminal 60 amino acids

Source: US20080009025A1, “PROTEIN KINASE REGULATION” (priority 1999, published 2008)
